Measurements published in patent US20250243279A1 (published 2025).

How the values were obtained:
Assay in all cases: Carterra LSA SPR
1D8 = target: 1D8
1B11-2 = target: 1B11-2
1D7 = target: 1D7
1H7 = target: 1H7
1C8 = target: 1C8
1D9 = target: 1D9
1B6 = target: 1B6
1E1 = target: 1E1
1A2 = target: 1A2

- Kd (1D8): 46.7 nM
- Kd (1B11-2): 2.83 nM
- Kd (1D7): 0.344 nM
- Kd (1H7): 75 nM
- Kd (1C8): 20.6 nM
- Kd (1D9): 12.8 nM
- Kd (1B6): 5.85 nM
- Kd (1E1): 12.2 nM
- Kd (1A2): 2.13 nM
B1: huMICA (ligand)
chain: EPHSLRYNLTVLSWDGSVQSGFLTEVHLDGQPFLRCDRQKCRAKPQGQWAEDVLGNKTWDRETRDLTGNGKDLRMTLAHIKDQKEGLHSLQEIRVCEIHEDNSTRSSQHFYYDGELFLSQNLETKEWTMPQSSRAQTLAMNVRNFLKEDAMKTKTHYHAMHADCLQELRRYLKSGVVLRRTVPPMVNVTRSEASEGNITVTCRASGFYPWNITLSWRQDGVSLSHDTQQWGDVLPDGNGTYQTWVATRICQGEEQRFTCYMEHSGNHSTHPVPSGKVLVLQSHWQTFHVSAVAAAAIFVIIIFYVRCCKKKTSAAEGPELVSLQVLDQHPVGTSDHRDATQLGFQPLMSDLGSTGSTEGA
